Entries after “also recorded” stand apart in the source; their conditions may differ.
Target: T1, CR2 (Homo sapiens, UniProt P20023, G20A)
T1 sequence (P20023 20-153 G20A): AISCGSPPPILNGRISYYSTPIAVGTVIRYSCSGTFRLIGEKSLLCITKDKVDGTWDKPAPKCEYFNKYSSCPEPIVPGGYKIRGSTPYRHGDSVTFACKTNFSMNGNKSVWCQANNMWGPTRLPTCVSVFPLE
Test: native gel shift assay of the binding between CR2 and C3d wild type or mutants
Conditions: for interaction with CR2 (shift of C3d band to the complex form): 6% native polyacrylamide gel, same C3d concentration, increasing amount of CR2, compared with wild type C3d
Source text: Based on the complex structure, mutagenesis of C3d around the interface to disrupt CR2 binding was predicted to be difficult. This is because the interaction between CR2 and C3 d involves mostly main-chain H-bonding, and the side chain residues play relatively small roles in the binding. However, to confirm the accuracy of the CR2-C3d interaction seen in this co-crystal structure, two informative C3d mutants were constructed. In mutant 170 (mt170; SEQ ID NO:8), residue Asn170 was changed to Arg. Asn170 is located on H7 of C3d and is the only residue on C3d that more or less points directly toward CR2 in the interface (FIG. 3E). Asn170 also packs directly with Tyr81 of CR2 as well as forms an H-bond with CR2 (Lys100) through a water molecule (FIG. 3E).
Briefly, FIGS. 4A and 4B show a native gel shift assay of the binding between CR2 and C3d wild type (wt) or mutants (mt). […] The C3d band will be shifted to the upper part of the gel when it forms a complex with CR2. The C3d concentration (for both wt and mt) is the same throughout lanes 1-12. The CR2 added to each corresponding lanes for wt and mt C3d was also the same, e.g. same amount of CR2 was added to the C3d samples in lane 2, 6 and 10, or in lanes 4, 8 and 12. […] The same conclusion can be drawn by comparing the intensity of the bands of the complexes containing the wt, mt115 and mt170. FIG. 4B is a graphical representation showing the intensity changes of the complex bands (measured by densitometry) as CR2 concentration increases from lanes 2 to 4 (wt), or lanes 6 to 8 (mt115), or lanes 10 to 12 (mt170).
The result shown in this experiment is consistent with that predicted by the interaction interface seen in the complex structure. […] This is consistent with the complex structure in that all these three residues, even though located within the interface area, have their side chains pointing sideways and are not involved in the direct contact with CR2. The side chain of Glu117, however, participates in the Zn coordination. […] The coordinated Zn in the structure, therefore, could simply come from the crystallization buffer which contained ZnAcetate.

| Substance | interaction with CR2 (shift of C3d band to the complex form) | apparent affinity for CR2 from intensity of the complex bands (densitometry) (as CR2 concentration increases, FIG. 4B) |
| --- | --- | --- |
| mt170: C3d mutant, residue Asn170 changed to Arg (SEQ ID NO:8) | clearly less strong; also recorded: still contains an obvious C3d band | less apparent affinity for CR2 than wt and mt115 |
| mt115: C3d mutant Gln105Ala, Leu116Ala, Glu117Ala | completely shifted to the complex form; also recorded: no obvious effect on CR2 binding |  |
| wt: wild type human C3d (SEQ ID NO:7), CR2 ligand [reference compound] | completely shifted to the complex form |  |

Source: patent US6820011B2, “Three-dimensional structure of complement receptor type 2 and uses thereof” (The Regents of the University of Colorado, priority 2001, dated 2004)
